Reference: patent publication US20190041401A1, “Methods of Treating Subjects having Severe and/or Persistent Asthma” (National Jewish Health, priority 2015, published 2019)

What was measured:
MEK^low population = test: Sensitivity of MEK^low CD4 population to dexamethasone-induced cell death; type: cell-based, human; conditions: BAL CD4 T cells, MEK^low (MFI 10)
Excerpt: FIGS. 5A-5H show the preferential expression of dual-positive TH2/TH17 cells in the BAL MEK^high CD4 T-cell population. FIGS. 5A and 5B, show the sensitivity of MEK^high and MEK^low CD4 populations to dexamethasone-induced cell death. Data are presented as percentages and absolute cell counts (in parentheses) per boxed area. […] FIGS. 5E and 5F show expression of dual-positive TH2/TH17 cells in MEK^high and MEK^low BAL CD4 T-cell populations. FIGS. 5G and 5H show the comparison of expression of dual-positive IL-4/IL-17 (FIG. 5G) and pSTAT3/pSTAT6 (FIG. 5H) cells in MEK^high and MEK^low cell populations.
Patients were allowed to continue their routine medication. Bronchoscopy and BAL were performed, as described previously (Good J T Jr, et al. Refractory asthma: importance of bronchoscopy to identify phenotypes and direct therapy. Chest 2012; 141:599-606). BAL fluid was processed immediately. Cells were isolated by means of centrifugation. Supernatant fluid was placed into aliquots in small samples and frozen. Cells were either cultured or fixed immediately in 4% paraformaldehyde and processed for flow cytometry. […]
Cells were stained with the following antibodies. […] This was detected with an Alexa Fluor 488-labeled anti-rabbit secondary antibody. […] Flow cytometric data were analyzed with FlowJo software (Tree Star, Ashland, Ore). […]

[1] = tested on: human lung epithelial cell line A549; test: IL-33 mRNA induction in A549 cells (real-time PCR); type: cell-based; conditions: cytokine treatment for 72 hours, normalized to GAPDH
Method: (§1) FIGS. 18A-18J show the role of IL-33 in the persistence of asthma. FIG. 18A, A549 cells were cultured in medium alone or with IL-33 ([…]), IL-1b (2 ng/mL), IL-4 (10 ng/mL), IL-13 (20 ng/mL), IL-17 (10 ng/mL), TNF (2 ng/mL), IFN-γ (10 ng/mL), or IFN-γ plus TNF (same concentrations) for 72 hours, and then mRNA was analyzed for IL-33 normalized to glyceraldehyde-3-phosphate dehydrogenase (GAPDH). *P<0.05 and **P<0.01. There were 4 to 8 mice per group. FIGS. 18B-18E show the direct effect of IL-33 on airway hyperreactivity, lung ILCs, and autoinduction. […] IN, Intranasal. […] The change in RL with the 25-mg dose of methacholine is shown (n=5 per group). *P<0.05.
Immediately after flexiVent analysis, lung sections were collected in RIPA buffer (50 mmol/L Tris [pH 7.4], 150 mmol/L NaCl, 1 mmol/L EDTA, 1 mmol/L NaF, 1 mmol/L Na3VO4, and 0.1 mmol/L phenylmethylsulfonyl fluoride) containing protease and phosphatase inhibitors and homogenized. Lysed samples were subjected to 10% SDS-PAGE, transferred to a polyvinylidene difluoride membrane, and then immunoblotted with primary antibodies (IL-33 [R&D Systems], tubulin [H-235], and b-actin [Santa Cruz Biotechnology, Dallas, Tex]). After washing, the membranes were incubated with a horseradish peroxidase-conjugated secondary antibody. After additional washing, the membranes were developed with ECL reagent, as previously described (Gorska et al. 2007). A549 cell culture A549 cells were cultured in RPMI in 10% FBS (HyClone; Thermo Scientific, Waltham, Mass.) and 1% penicillin/streptomycin (Gibco, Carlsbad, Calif.) and maintained at 378C in a humidified 5% CO2 incubator. All cytokines were purchased from PeproTech (Rocky Hill, N.J.). In one experiment cells were treated with medium, IL-1b (2 ng/mL), IL-4 (10 ng/mL), IL-13 (20 ng/mL), IL-17 (10 ng/mL), IL-33 (20 ng/mL), TNF (2 ng/mL), IFN-g (10 ng/mL), and TNF (2 ng/mL) plus IFN-g (10 ng/mL) for 72 hours. Cellular RNA was analyzed for mRNA for IL-33 and IL-33R. In a second experiment cells were pretreated for 24 hours with medium, IL-1b (2 ng/mL), IL-4 (10 ng/mL), IL-13 (20 ng/mL), IL-17 (10 ng/mL), TNF (2 ng/mL), or IFN-g (10 ng/mL) before stimulation for 72 hours with IL-33 (20 ng/mL). Cellular RNAwas analyzed for mRNA for IL-33. In a third experiment cells were treated for 24 hours with DRA (5 μg/mL dust mite, 15 μg/mL ragweed, and 5 μg/mL Aspergillus species). Cellular RNA was analyzed for mRNA for IL-33. In a fourth experiment cells were treated for 24 hours with IL-13 (20 ng/mL) and ATP, and the supernatant was collected and analyzed for IL-33 levels by means of ELISA, according to the manufacturer's instructions (R&D systems). […]

A549 cells [2] = test: Cytokine induction of IL-33R mRNA in A549 cells; type: cell-based, human; conditions: cytokine treatment for 72 hours
Method: as §1
(§2) Immediately after flexiVent analysis, lung sections were collected in RIPA buffer (50 mmol/L Tris [pH 7.4], 150 mmol/L NaCl, 1 mmol/L EDTA, 1 mmol/L NaF, 1 mmol/L Na3VO4, and 0.1 mmol/L phenylmethylsulfonyl fluoride) containing protease and phosphatase inhibitors and homogenized. […] Cellular RNA was analyzed for mRNA for IL-33 and IL-33R. […] Cellular RNAwas analyzed for mRNA for IL-33. […] Cellular RNA was analyzed for mRNA for IL-33. In a fourth experiment cells were treated for 24 hours with IL-13 (20 ng/mL) and ATP, and the supernatant was collected and analyzed for IL-33 levels by means of ELISA, according to the manufacturer's instructions (R&D systems). […]

A549 cells [3] = test: IL-33 autoinduction in A549 cells after cytokine pretreatment; type: cell-based, human; conditions: pretreated 24 hours with cytokine, then 72 hours with IL-33 (20 ng/mL)
Method: as §1, §2

C57Bl/6 mice = test: Intranasal IL-33 administration, outcomes after 15 days; type: in vivo, mouse
Method: as §1
FIG. 27A, Effect of IL-13 on IL-33 secretion. A549 cells were treated overnight with medium or IL-13 (20 ng/mL) and ATP ([…]), and the released IL-33 was measured by using ELISA (n=6). *P=0.04. FIGS. 27B-27E, Direct effect of IL-33 on airway hyperreactivity and lung ILCs. C57Bl/6 mice were treated intranasally for 3 consecutive days with 400 ng per dose of IL-33. Outcome measures were evaluated 15 days after final exposure.
Measurement methodologies have been explained in depth in Goplen et al. (Goplen N, et al. Combined sensitization of mice to extracts of dust mite, ragweed, and Aspergillus species breaks through tolerance and establishes chronic features of asthma. J Allergy Clin Immunol 2009; 123:925-32.e11). Briefly, mice were anesthetized with ketamine (180 mg/kg), xylazine (9 mg/kg), and acepromazine (4 mg/kg). After loss of footpad pinch reflex, a tracheotomy was performed, and the mouse was attached with an 18-gauge cannula to a small-animal ventilator with a computer-controlled piston (FlexiVent; SCIREQ, Montreal, Quebec, Canada). Mice were ventilated at a frequency of 90 breaths/min with a tidal volume of 20 mL/kg during nebulization and otherwise with a frequency of 150 breaths/min with a tidal volume of 20 mL/kg while breathing against an artificial positive endexpiratory pressure of 2.5 to 3 cm H2O. Lungs were inflated to total lung capacity twice to standardize volume history. Resistance measurements were then taken to establish baselines for total lung resistance and at each methacholine dose. Group averages were expressed as fold increases in baseline resistance (means+SEMs).
Inflammation was quantified by using Metamorph image acquisition and analysis software on H&E-stained lung sections at 20× magnification, as described in Goplen et al. 2009. Airway epithelial hypertrophy and peribronchial smoothmuscle hypertrophyweremeasured as the area of epithelial or smoothmuscle per circumference of airway basement membrane. Airway inflammation was measured as the area of inflammatory infiltrates as a percentage of the total field. A minimum of 5 airways per mouse and 5 to 9 mice per group were quantified. Images were acquired on a Nikon Eclipse TE2000-U microscope by using 320 dry lenses at room temperature through a Diagnostics Instruments camera model #4.2 with Spot software 5.0 (Diagnostic Instruments, Inc, Sterling Heights, Mich.). H&E sections were mounted with Permount medium (Thermo Fisher Scientific, Inc, Waltham, Mass.). Images were adjusted for brightness and contrast to improve viewing.
Lungs were perfused with saline, and single-cell suspensions of lung cells were acquired by using mechanical mincing of lungs followed by digestion at 37° C. for 45 minutes in RPMI with 10% FBS, 1% penicillin/streptomycin, and collagenaseA (1 mg/mL). Cell suspensions were agitated at room temperature for 10 minutes in RPMI with 100 U/mL DNAse I before filtration through 40-mm filters and red blood cell lysis. Single-cell suspensions were subsequently fixed in 4% paraformaldehyde for flow cytometric analysis.
Mouse ILC2s. For mouse flow cytometric staining, all conjugate antibodies were purchased from BioLegend (San Diego, Calif.), unless otherwise stated. Mouse lung digest cells were fixed with 4% paraformaldehyde and incubated with 10% donkey serum and 1% 2.4G2. […]

[4] = intranasal, 400 ng per dose for 3 days, 15 days after
[5] = intranasal, 3 consecutive days, 400 ng per dose, 15 days after

C[C@@H]1C[C@H]2[C@@H]3CCC4=CC(=O)C=C[C@]4(C)[C@@]3(F)[C@@H](O)C[C@]2(C)[C@@]1(O)C(=O)CO [Dexamethasone, dexamethasone]
cell count decrease after dexamethasone treatment, MEK^low CD4 T cells (MEK^low population): 2.7 fold

IL-17: cytokine purchased from PeproTech, 10 ng/mL on A549 cells
induction of IL-33 mRNA [1]: directly induced IL-33

IL-113: probably IL-1b cytokine (PeproTech, 2 ng/mL on A549 cells), misprinted
induction of IL-33R mRNA (A549 cells [2]): strong inducer of IL-33R
IL-33 autoinduction after preincubation with cytokine (A549 cells [3]): unable to facilitate IL-33 autoinduction

B1: IL-33: interleukin-33 cytokine, given intranasally to mice or added to A549 cells (protein, UniProt Q8BVZ5 1-266, looked up)
Interleukin-33: MRPRMKYSNSKISPAKFSSTAGEALVPPCKIRRSQQKTKEFCHVYCMRLRSGLTIRKETSYFRKEPTKRYSLKSGTKHEENFSAYPRDSRKRSLLGSIQAFAASVDTLSIQGTSLLTQSPASLSTYNDQSVSFVLENGCYVINVDDSGKDQEQDQVLLRYYESPCPASQSGDGVDGKKLMVNMSPIKDTDIWLHANDKDYSVELQRGDVSPPEQAFFVLHKKSSDFVSFECKNLPGTYIGVKDNQLALVEEKDESCNNIMFKLSKI
induction of IL-33 mRNA [1]: capable of autoinduction
persistence of airway hyperreactivity and airway inflammation (C57Bl/6 mice; after intranasal IL-33, 400 ng per dose for 3 days): 2 weeks
IL-51 ILC2 numbers (C57Bl/6 mice; [4]): increased
number of lung IL-131 ILC2s (C57Bl/6 mice; [4]): increased
total number of IL-51 and IL-131 lung cells (C57Bl/6 mice; [4]): increased
airway hyperreactivity (C57Bl/6 mice; [5]): induced airway hyperreactivity
airway inflammation (C57Bl/6 mice; [5]): mild airway inflammation
IL-33 production (autoinduction) in lung cells (C57Bl/6 mice; pro-surfactant protein C-positive epithelial cells and CD11b+ hematopoietic cells, 2 weeks after intranasal IL-33): persistent IL-33 production was observed

B2: IL-4: cytokine purchased from PeproTech, 10 ng/mL on A549 cells (protein, UniProt P05112 25-153, looked up)
Interleukin-4: HKCDITLQEIIKTLNSLTEQKTLCTELTVTDIFAASKNTTEKETFCRAATVLRQFYSHHEKDTRCLGATAQQFHRHKQLIRFLKRLDRNLWGLAGLNSCPVKEANQSTLENFLERLKTIMREKYSKCSS
induction of IL-33 mRNA [1]: directly induced IL-33
